Assay results taken from the DeepSol protein solubility set.

Assay: soluble on expression in E. coli; label from the status in PepcDB or PDB records
With “GPGSMNVCSNTTKDPLTLMAMWGSMKGYNPEQGFSFEGPEKRLEVILRSTLETHVDGLRSLDDSVWSGVVGSLNAQIVSRESNEYINSYVLTESSLFVMKNRIILITCGTTTLLNSIPNILEAISAVRGELEWVSFMHKNYSFPWMQKGPHTSLADEFATLKQHFPTGKPYIFGPVDSDHYFLFCYDDIIRPCSSEDDTQLSMTMYGLDKEQTKYWFRDRFISTSAETAAIRAATHLDRVVDGTWTLHDLQFEPCGYSINAIRDEEYQTMHITPEDHCSFASYETNSRATNYSDRMKKVLGVFRPQRFTVIVFLDPESPVGKAYNEGKGIGVEPEYYPEYSLLHRTTNEFAPGYVAMKINYVRTAAVEETDAAVGGAEPGAKSGPD” the “soluble on expression in E. coli” value was “not soluble”. For “GPGSMPPSQTVEYEEDFGHNLMIHREYISKRCRDRVSFELSALSYSNLELRRGQEHLAGIMNRERRGVSVGASGAPDDQVQMQTDVDANSREVLSARYLFNERRLQFCDRFQNFFQSKLENSAASDSNGHEKQHLFSLMEACAVIFGCETEAARETYYRMFLGLDSETLLEEDEALRNRIADAKLVQRVLENNKGRQEVTQSPKLQQQQDQGKPLHAVSSGTSLLNDCEEERFISSIPELSLFEDETEARANGFVEGEDDVKANNGDLTAGSFSSPASSVNLPEEFEEYAPLYKAYITHAVGKGPVASYDISTLGSTGLTAERRRWRTLMEKIVREDYHTMTEVEQMDAIVLNEQLHTVKFFDLKIGDAIRDILQLLQRETGVGSSVNRDTPVGISPNNPERRV”, the “soluble on expression in E. coli” value was “not soluble”. With “GPGSMPTLAVAKDYICRLIGKSYTDEEFSDLCFQFGLELDDITSEKEMFMREQGKSAKANVAPAEAPAHLSEEKLYKIDTPANRHDLLTAEGMACALRVFMGTMPLPNYRVLNRASPLYRMSVEKSVKNVRDYVVCAVLRNIHFNERSYNSFIDYQERLHAGLARRRTLASVGTHDLDKVNTTDFIFACRPRETVRFVPLRQTRELNCAGDGLAQYYAEDRHIGKYVPLISSFPTYPVVYDGTGQNVLSLPPIINSHYSAISVDTRNIFIECTAPDHYKAQVLVNQLVCAFSVYCEDPFTVEAVQVNYEEPTPDGTRSLVTPTMETKEMTMNIERLNSIIGIKMKSGAECAQLLKMMMYTIKETTESEVTVTVPPMRTDVIGVADVMEDVAIAYGYDNITYVECKTHGPVTQTPLSKVAQLLRTEMACAGYTELLTLSLCSRADAFESLGRVDNDVAAHIANPQTMEFQVCRPSLLPGILKTLATNKSKPLPQRFFECADVVLLDNERNFPPVLELKTDYASCGARNQRHLAAAHCNGSSSGFESIHGLTELALLKLGVPSKAAIADDYEGDYYTLEKGEDGAFFPGRAMDIILHRAGQAVRIGHLGVIHPNTLKAYDIPSPCSYMELNIQFLCVPL” the “soluble on expression in E. coli” value was “not soluble”. In the case of “GPGSMSAIKRSLNVGVVGMGNMGIPITRNLAFKARSAMYLQIHSRTLSKARQVCDDMSADGATCAMRIHDRYSTMTKWCDVILLTLAHRAASRKVLLEDSEALVTNARPGQIIVDHTTVDMELSRECAHEAERRGAVFLDAPMSGSPKQAFNNQLVLMVGGPAEQVQRVSPIFRMYADHIHHMGANGSGTAAKLLSQALVASHNAAAAEAMTIANRLGIEDYQKLIQVLDASWGSSTMLRRNAPTMQDLVRNPDKLAPSSGASIDNLLEDLALLDASLPKIEKGDNGNGGREVEEERFPVLDASLRMLGAAVESGMGDRDMAAVIHYIPAAAAMEKEEGVRVQPRGLTSGAFLDRNATGKVNSGPAAAAGAAVAASSPPTPAEIEMDPGSLADSLSAAESSSNGKGSTTQAASIAEPLTTASSQQPPAFTPEDFY”, the “soluble on expression in E. coli” value is reported as “soluble”. In the case of “GPGSMSASSAPDRVYVGKRLHFTNGSRQLVRCGTRNIAVVCNRNELYAIDNACYHHGGPLLLGDIEEMGGHPCIVCPWHSYKIALDTGEGLYLGVELSPAGGTPKQVVRSKGCKQRVHKVEVDEADDVYVLVDLSGPTLESDTYASMELANRERPMSLPVDGGGRGLRVPGIHSHAGVELRSGQVFQHMGSLAEAGGNTGTRGANSLDHAQKTRPHEITSRGSSCSSPTTRLMVSCVAITDVCPQVRQFDFVHHAGPLLRHAELGEYVELELPIKERRTANGGGGQAVDLLSSSSAPAATAGEPMRRRWTICDMNHNSTLFSIIVKAAGTDTQASGSAWLHEHSLSVPLPITRVGGTFTFARHRDTIRRVGGRVLWLTAGVGMTPAYAFLNASLGNSLYVASAEPLHVVHLHSNRTLETVPKLEQFGRWQREFPRSALDTAEKTSGGSGARKPGKTYVMELFIALSTDAGQGQRTSPGSSPPDSCPVATITHRSRLQPANVSAAVQKYFGADMQLAYVCGPQKFVKDCTEALVSTGVPESHILTDDP”, the “soluble on expression in E. coli” value is reported as “not soluble”. With “GPGSMSAVASDDSAGHVVDPVQHTHRYVQEHRLNELFGHLLQLVLYHRPDDPRAFLAEEVRKIREEKVSLSLFTERDLETMFEMIDATAQRWITVAQLRNTCRNLATASSAGNVSTGGGDLTAEQEAAIAGAGDAAGRVTMDKFKEVLSSLLLTKNKWS” the “soluble on expression in E. coli” value was “soluble”. With “GPGSMSERDKQRRSLERERMATVIFSYISHLMRTHEEETTVADEFIPSTKFFRTETLPNISLIHYVRRVVEHMNCSPEAYIFALAYIRRLFVAGFPLHTHSIYRLLLTAVVVATRVRDDFLFSKKYYSKVGGVTACDLNMMEIHFLADLLEYRVEVSPDEYRVLCNEITALLSSEVSKFDGNSSNPNNDTAAEGVASIQEPVGNSKPRWMSECCLYW” the “soluble on expression in E. coli” value was “not soluble”. With “GPGSMSFSHFVPPISRRRMFFEDQLDEALSREGSPRLSTSNTVGGADLVAAGAANDETFPFPSHAAPGHLLKSLIQATENERCAPDILPYPEAIVDSVVAQIVAQNEQIRLLGTDERQKAAGSDSGVSLLPFKPSDIMALEVQRAQFFLCELLRCRLRKIEALALTINYESQSGAEAHTQLREHLSHNEIVVADRLAELISKCVRQAGLQSAPSELQQLVPNAPYAEGNEVLPIPDIDHYVFCVVLDDLGVVRLGDDAEQTVHAGEVFIVPYRTFRPYILEGRVRLV” the “soluble on expression in E. coli” value was “not soluble”. For “GPGSMSHSSLKRAPEITPQAATDKDSILCRSAHAKPLSFTTAPRDSAMVKLDVTLLRFMEDEDFRVLTALEMAMRNHDVAPTALVERIAQLPHGGCRKRLNNLLKHKMIHHENTMYDGYAMKYGAYDYLALRTLSKRGTCTGVGHRIGCGKESDIILVRDEAGHECVLKLQRLGRCSFRSVARNRDYKGNGRARHGESWFYLSRLASQKEYSFMKMLYDEGFPVPKPIDQNRHALLMELVPGTLLNNITELGDASKVYRRALELMVKLAESGLIHGDFNEFNLMITDDQRVIMIDFPQMISINHPNASELFDRDVQNLANFFHRRFKVDTTWFPSLEKDVVRKNELDKQVYASGHFTRKQQEDLERLMLEGFQRGEKSDDEAGSQARDSDASDDDGDENALQRSDIGNADVDAGVAGKFMTIPGFARGGESDEEREDSSDDDASEGRLLDEAMGAARERRQGEFYAHNADRNANFFPDGKINEDHVKHQIRKSIRRKDNHDFNRHLHRNVQKGRQKQKIQRQLKSSNGGGFFD”, the “soluble on expression in E. coli” value was “not soluble”. In the case of “GPGSMSPRTSERILALGVRRLRIRSSSTASSSCNGVVEFSTCGGAGGPSYRPLAAMAMIANIQAVAFTDSRRSVFQNKKTLPSPHGRNITPDAAETKGRALFSDSNSECFPADLDPPSASQLDRILPSLNQLRDEIPSSEYVEELVRRQGVSTDLWSNGEKNNSADDDDE”, the “soluble on expression in E. coli” value is reported as “not soluble”. For “GPGSMSSIEELKVVRLFRALNTMIQLCHDRGYVIRHPSAIAEAVQNPELYNNEEGLDHDWFLRHFVISPDRAARSIRAKQRGDGSSRSGPRREAKNEEDGGDADKPGEYDVAADEDEALRRAANGEWVCMRNAMRLTCSVDPRRATLASSVLTGAPTNKAPSSAPAVTAEPKDDDGDVPYAVAAAAVDAKSKEKAAKNALMVFFSGSPKLSMKEVHSFREKALKKKASSMIVVTNKIDPGVRMDVQELSGRMDEATGAELLSIQVFEEEALAFNVVRHETVPRHVALTPAEAEAFLAERKLNVAQLPRMQESDPLVQYLGLQRGSIVHITREGKQSGPYSMYRHVI”, the “soluble on expression in E. coli” value was “soluble”. With “GPGSMSTEDASIAYAKKHKIHHLFELMATKVLLNRPENPFAYLRNLLKDVEESEKNRVPYDPTEVHFNNDVGAAAPAAGNSGGSGAAAPAAALTSAKKEKRTVTLATFGLDRAGKTCALSVLESGEADKKYTPTVGFAPIKFPLDDYNLCVFDLGGAANFRGIWVHYYHDCFGIVYVIDSAASDERVAESLKVLHETLQHPYVKGKPLLVLANKKDLPESRGVGVVPQGFLEEAMGEPGAPHRVLATCAIEDDPVLVEGIEWLLEAVSKEYDTLAKRVAKDSNEVKSEKARQRAARLAAIRGEDR” the “soluble on expression in E. coli” value was “soluble”. With “GPGSMSTLKEVNGRLNTQPFVSGFSPSSEDARIFNEMFGSNVNVIQWVARMASYYQAERDEILNAGTEKKATEPAKKAAAPAPAAAAAAEEEDDIDLFGETTEEEKAALEAKKAKDAEKKKAKKEVIAKSSILFDIKAWDDTIDLEALAQKLHAIQRDGLIWGDHKLVPVAFGVKKLQQLIVIEDDKVSGDDLEEMVMGFEDEVQSMDIVAWNKI” the “soluble on expression in E. coli” value was “soluble”. With “GPGSMSYSGRKLKYFVEDSDGWLRRNQQVAEQFVMAEDDRETKEMLSLLAPRAHFASFWGVVRGLPAAVALQAQEREHLRITWTSGLQPLTSRTFARNGYVHVLDRERMSFIPVLGPWLSSFFQRPVQELLVVREGRVVFRGMGYVWDIGKH” the “soluble on expression in E. coli” value was “not soluble”. With “GPGSMSYYDKSSSVGYDERDKELNEELEAMLARTPPHIQRHLQQRIHDGILQRMKEETTRKCWEFVKKYEGCVNSVQPYNIRECLPHRDALNDCAHEINCEDNYQKYRLLYLHGELLKLHEHRTGQKMEALKSRVPDSIRTWKSDYAPKYADMMSEVGAKPFTGEGENLDDE” the “soluble on expression in E. coli” value was “soluble”. For “GPGSMTANSKPARFLALAAAKQGTTANVAFNALSVYAKMELSKQTNKMLKVHAATTPLVALIQKRTGIKAAAEAVRQTQTAAKATATVSSYDNSEINPQYIGADIAAKMEQMRKHESYGKIKKDGHTLSAPSTAKFPTAEDSTLRKITISVAVQVLCTGSSNSKWQISGKLEG”, the “soluble on expression in E. coli” value was “soluble”. For “GPGSMTELVPPEAIRFANGEPLCAYHECYRCFDGRDILFRLVNVEKKQWFFYNDTADTIAHVRAVFYPGSVIRPLQRADMHVIPGPTGVADETCSIEVTLDIQPGFTESFIEGEHKGFHLEFRTETAPTKEVVFEYRRPMVPYDKIYRCFKNGNGLLFRLVDERVRQWFFYNDTRDLMMKVSVTFANSAEVRPLGCTALGAPHADTAPESVVYTLLIAPGCTEPFIEGNPVTYTLEFAAEPVDAPVTPVLEEPVQYLHGSPDVAVIPHQTHVFKCFKEHGNGLLFRVVDDVNTIWAFYNDTPDYVMTANMRYPSTSDIRLAPGVQVIADSEREGGFVAAVEVLPLATVPFLVGSPEQYELAFAATPVAPLTPSPTTSPEPSSPPQLADAADAAATVPPALPVPEEAPVYCNSGPDLTVMPNIDEVYKCFKDYGNGLVFRLVDKVQRRWAFYNDTTDIVALVRVQFSPGAHIQPLGHTVLGCDLESGSVLHELRVNPLETALFVEGDVDIFTTKFVAEEIQT”, the “soluble on expression in E. coli” value was “soluble”. With “GPGSMTIDAVSPLFADISREYGAAFDAAIARNVADALAEDVGSGDQTGRLVPDGAPRRARVIVREDAVLCGVPWFDAVVRAVDPSIEVDWRHREGDRMSADSTVCELRGPARALLTAERNALNFLQLLSGVASATRQYVDRIADTRARILDTRKTLPGLRLAQKYAVRVGGGANQRLALYAGILIKENHIAAAGGVGEALDAAFALNAEVPVQIEVETLDQLRTALAHGARSVLLDNFTLDMMRDAVRVTEGRAVLEVSGGVNFDTVRAIAETGVDRISIGALTKDVRATDYSMRIVE” the “soluble on expression in E. coli” value was “soluble”.
